Laboratory results reported in article PMC3167620.
Substitutions are numbered along the chain they refer to. Where two headings read alike, the source gives them in different places.

Tests used:
[1] = biological target: T1, G4R1/RHAU (G4 Resolvase 1) (human, UniProt Q9H2U1 1-1008); assay: EMSA
T1 sequence: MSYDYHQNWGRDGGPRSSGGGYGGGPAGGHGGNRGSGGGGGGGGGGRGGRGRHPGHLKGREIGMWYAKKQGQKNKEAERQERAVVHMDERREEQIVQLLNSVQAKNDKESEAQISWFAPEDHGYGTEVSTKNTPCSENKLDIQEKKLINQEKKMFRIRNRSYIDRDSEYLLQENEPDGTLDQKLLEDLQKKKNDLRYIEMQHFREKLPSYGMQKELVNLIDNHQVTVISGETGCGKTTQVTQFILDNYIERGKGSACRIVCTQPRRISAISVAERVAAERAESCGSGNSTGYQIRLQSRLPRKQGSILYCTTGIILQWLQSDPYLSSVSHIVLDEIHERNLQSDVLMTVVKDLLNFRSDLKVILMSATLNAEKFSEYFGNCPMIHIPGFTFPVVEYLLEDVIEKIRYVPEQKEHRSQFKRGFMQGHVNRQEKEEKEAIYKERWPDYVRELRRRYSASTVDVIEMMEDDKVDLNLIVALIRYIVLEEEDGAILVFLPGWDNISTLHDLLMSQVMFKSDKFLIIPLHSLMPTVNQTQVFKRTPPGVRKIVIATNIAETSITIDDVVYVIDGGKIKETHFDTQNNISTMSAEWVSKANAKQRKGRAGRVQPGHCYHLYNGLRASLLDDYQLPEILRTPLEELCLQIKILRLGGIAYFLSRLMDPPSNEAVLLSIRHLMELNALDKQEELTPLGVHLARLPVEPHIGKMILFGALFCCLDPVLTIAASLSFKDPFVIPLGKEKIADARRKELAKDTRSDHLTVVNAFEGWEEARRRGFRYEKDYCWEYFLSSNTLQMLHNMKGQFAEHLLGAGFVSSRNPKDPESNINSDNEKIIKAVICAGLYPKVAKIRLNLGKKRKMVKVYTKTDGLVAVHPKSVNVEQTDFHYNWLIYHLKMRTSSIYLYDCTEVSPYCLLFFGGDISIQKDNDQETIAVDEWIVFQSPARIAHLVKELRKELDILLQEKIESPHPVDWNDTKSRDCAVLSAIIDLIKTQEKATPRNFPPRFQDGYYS

[2] = biological target: T1, G4R1/RHAU (G4 Resolvase 1); assay: competition
[3] = biological target: T1, G4R1/RHAU (G4 Resolvase 1); assay: EMSA; remark: listed apart in the source
[4] = biological target: T2, G4R1/RHAU E335A (Walker B, ATPase-dead) (human, UniProt Q9H2U1 1-1008, E335A); assay: EMSA
T2 sequence: T1 sequence with E335A

[5] = biological target: T1, G4R1/RHAU (G4 Resolvase 1); assay: EMSA; remark: listed apart in the source
[6] = biological target: T1, G4R1/RHAU (G4 Resolvase 1); assay: EMSA; remark: listed apart in the source
[7] = biological target: T1, G4R1/RHAU (G4 Resolvase 1); assay: competition; remark: listed apart in the source

Binder: TTTTTTTTTTGGGTGGGGGGGGCGGGGGAGGCCGGGGTTTTTTTTTT (structured_DNA) [Poly T Zic1 DNA 47-mer, unimolecular G4]
- Kd [1]: 2.4 ± 0.2 pM

Binder: AAAGTGATGGTGGTGGGGGAAGGATTTTCGAAC (structured_DNA) [Z33 tetramolecular G4-DNA]
- IC50 [2]: 1 competitor:substrate molar ratio

Binder: AGAAGAGAGAGAGTGAGAGAGACGAGAGAGGCCGAGAAGAGAGAGAG (ssDNA) [Scrambled Zic1 DNA 47-mer]
- Kd [3]: > 300 pM

Binder: AAAAAAAAAAGGGTGGGGGGGCGGGGGAGGCCGGGGAAAAAAAAAA (structured_DNA) [Poly A Zic1 DNA 47-mer, unimolecular G4]
- Kd [1]: 5.7 ± 0.2 pM
- binding result [4]: binds
- Kd [5]: 5 pM

Binder: AAAAAAAAAAGGGTGGGGGGGCGGGGGAGGCCGGGGAAAAAAAAAA (ssDNA, guanine N7 methylation (DMS)) [Poly A Zic1 47-mer, dimethyl sulfate treated]
- binding result [6]: no binding

B1: c-Myc DNA 51-mer, unimolecular G4 (structured_DNA)
DNA: GGCCGCTTATGGGGAGGGTGGGGAGGGTGGGGAAGGTGGGGAGGAGACTCA
- Kd [1]: 4.4 ± 0.6 pM
- IC50 [7]: 0.06 competitor:substrate molar ratio
